Assay results as given in patent US5478723A, “Method and apparatus for determining the role of cytochrome P450 and related enzymes in the metabolism of drugs and other chemicals” (priority 1993, dated 1995).

B1: CYP2E1: P450 enzyme in frozen human liver (protein, UniProt P05181 1-493, looked up)
Cytochrome P450 2E1: MSALGVTVALLVWAAFLLLVSMWRQVHSSWNLPPGPFPLPIIGNLFQLELKNIPKSFTRLAQRFGPVFTLYVGSQRMVVMHGYKAVKEALLDYKDEFSGRGDLPAFHAHRDRGIIFNNGPTWKDIRRFSLTTLRNYGMGKQGNESRIQREAHFLLEALRKTQGQPFDPTFLIGCAPCNVIADILFRKHFDYNDEKFLRLMYLFNENFHLLSTPWLQLYNNFPSFLHYLPGSHRKVIKNVAEVKEYVSERVKEHHQSLDPNCPRDLTDCLLVEMEKEKHSAERLYTMDGITVTVADLFFAGTETTSTTLRYGLLILMKYPEIEEKLHEEIDRVIGPSRIPAIKDRQEMPYMDAVVHEIQRFITLVPSNLPHEATRDTIFRGYLIPKGTVVVPTLDSVLYDNQEFPDPEKFKPEHFLNENGKFKYSDYFKPFSTGKRVCAGEGLARMELFLLLCAILQHFNLKPLVDPKDIDLSPIHIGFGCIPPRYKLCVIPRS
B2: CYP2A6: P450 enzyme in frozen human liver (protein, UniProt P11509 1-494, looked up)
Cytochrome P450 2A6: MLASGMLLVALLVCLTVMVLMSVWQQRKSKGKLPPGPTPLPFIGNYLQLNTEQMYNSLMKISERYGPVFTIHLGPRRVVVLCGHDAVREALVDQAEEFSGRGEQATFDWVFKGYGVVFSNGERAKQLRRFSIATLRDFGVGKRGIEERIQEEAGFLIDALRGTGGANIDPTFFLSRTVSNVISSIVFGDRFDYKDKEFLSLLRMMLGIFQFTSTSTGQLYEMFSSVMKHLPGPQQQAFQLLQGLEDFIAKKVEHNQRTLDPNSPRDFIDSFLIRMQEEEKNPNTEFYLKNLVMTTLNLFIGGTETVSTTLRYGFLLLMKHPEVEAKVHEEIDRVIGKNRQPKFEDRAKMPYMEAVIHEIQRFGDVIPMSLARRVKKDTKFRDFFLPKGTEVYPMLGSVLRDPSFFSNPQDFNPQHFLNEKGQFKKSDAFVPFSIGKRNCFGEGLARMELFLFFTTVMQNFRLKSSQSPKDIDVSPKHVGFATIPRNYTMSFLPR
B3: CYP1A2: P450 enzyme in frozen human liver (protein, UniProt P05177 2-516, looked up)
Cytochrome P450 1A2: ALSQSVPFSATELLLASAIFCLVFWVLKGLRPRVPKGLKSPPEPWGWPLLGHVLTLGKNPHLALSRMSQRYGDVLQIRIGSTPVLVLSRLDTIRQALVRQGDDFKGRPDLYTSTLITDGQSLTFSTDSGPVWAARRRLAQNALNTFSIASDPASSSSCYLEEHVSKEAKALISRLQELMAGPGHFDPYNQVVVSVANVIGAMCFGQHFPESSDEMLSLVKNTHEFVETASSGNPLDFFPILRYLPNPALQRFKAFNQRFLWFLQKTVQEHYQDFDKNSVRDITGALFKHSKKGPRASGNLIPQEKIVNLVNDIFGAGFDTVTTAISWSLMYLVTKPEIQRKIQKELDTVIGRERRPRLSDRPQLPYLEAFILETFRHSSFLPFTIPHSTTRDTTLNGFYIPKKCCVFVNQWQVNHDPELWEDPSEFRPERFLTADGTAINKPLSEKMMLFGMGKRRCIGEVLAKWEIFLFLAILLQQLEFSVPPGVKVDLTPIYGLTMKHARCEHVQARLRFSIN
B4: CYP2D6: P450 enzyme in frozen human liver (protein, UniProt P10635 1-497, looked up)
Cytochrome P450 2D6: MGLEALVPLAVIVAIFLLLVDLMHRRQRWAARYPPGPLPLPGLGNLLHVDFQNTPYCFDQLRRRFGDVFSLQLAWTPVVVLNGLAAVREALVTHGEDTADRPPVPITQILGFGPRSQGVFLARYGPAWREQRRFSVSTLRNLGLGKKSLEQWVTEEAACLCAAFANHSGRPFRPNGLLDKAVSNVIASLTCGRRFEYDDPRFLRLLDLAQEGLKEESGFLREVLNAVPVLLHIPALAGKVLRFQKAFLTQLDELLTEHRMTWDPAQPPRDLTEAFLAEMEKAKGNPESSFNDENLRIVVADLFSAGMVTTSTTLAWGLLLMILHPDVQRRVQQEIDDVIGQVRRPEMGDQAHMPYTTAVIHEVQRFGDIVPLGVTHMTSRDIEVQGFRIPKGTTLITNLSSVLKDEAVWEKPFRFHPEHFLDAQGHFVKPEAFLPFSAGRRACLGEPLARMELFLFFTSLLQHFSFSVPTGQPRPSHHGVFAFLVSPSPYELCAVPR

Test: Storage stability of P450 enzymes in frozen human liver
Type: physicochemical
Conditions: human liver at -65 to -90 degrees C, up to six months
Excerpt: P450 enzymes in frozen liver microsomes appear to be relatively stable.

Degradation on storage, no detectable degradation:
B1
B2
B3
B4
